From article PMC9590162
Several values for one entry are separate records, joined by “and”; a condition that tells them apart may be missing. Identical values can stand only once.

Target: human nesfatin-1 (human) (UniProt P80303)
Assay: AUC; SV-AUC, 20 °C, 50 000 rpm, buffer B with 300 or 500 μM ZnCl2; hN1 at 0.7, 1.0, 1.3 mg/ml; monomer to dimer

percent of the two main sedimenting species in the larger (dimer) fraction: 58% and 45% and 51% | stoichiometry N: 2
Substance: human nesfatin-1 (from UniProt P80303 25-106) (peptide)
